Experimental data published in patent publication US6025158A, “Nucleic acids encoding humanized anti-IL-8 monoclonal antibodies” (Genentech, Inc., dated 2000).
Where a chain is given by its changes, count along the chain named. In names and notes the source's numbering stands. Read-outs that look alike come from different tables or passages of the source.

How the values were obtained:
[1] = molecular target: T1, recombinant human IL-8, (ser-IL-8)72 (human, UniProt P10145); assay: inhibition of 125I-IL-8 binding to human neutrophils
IL-8 = IL-8 (Homo sapiens, UniProt P10145); assay: human (wild type) IL-8 mediated neutrophil chemotaxis; format: cell-based
Protocol: Human neutrophils were isolated, counted and resuspended at 5×10^6 cells/ml in Hank's balanced salt solution (abbreviated HBSS; without calcium and magnesium) with 0.1% bovine serum albumin. The neutrophils were labeled by adding calcein AM (Molecular Probe, Eugene, Oreg.) at a final concentration of 2.0 μM. Following a 30 minute incubation at 37° C., cells were washed twice with HBSS-BSA and resuspended at 5×10^6 cells/ml.
Chemotaxis experiments were carried out in a Neuro Probe (Cabin John, Md.) 96-well chamber, model MBB96. […] 100 μl of the calcein AM-labeled neutrophils were added to the upper chambers and allowed to migrate through a 5 micrometer porosity PVP free polycarbonate framed filter (Neuro Probe Inc.) toward the bottom chamber sample. The chemotaxis apparatus was then incubated for 40 to 60 minutes at 37° C. with 5% CO2. At the end of the incubation, neutrophils remaining in the upper chamber were aspirated and upper chambers were washed three times with PBS. Then the polycarbonate filter was removed, non-migrating cells were wiped off with a squeegee wetted with PBS, and the filter was air dried for 15 minutes.
The relative number of neutrophils migrating through the filter (Neutrophil migration index) was determined by measuring fluorescence intensity of the filter and the fluorescence intensity of the contents of the lower chamber and adding the two values together. Fluorescence intensity was measured with a CytoFluor 2300 fluorescent plate reader (Millipore Corp. Bedford, Mass.) configured to read a Corning 96-well plate using the 485-20 nm excitation filter and a 530-25 emission filter, with the sensitivity set at 3.
The affinity matured Fab variant, 6G4V11N35E, was tested for its ability to inhibit IL-8 mediated neutrophil chemotaxis as described in Section (B)(2) above. The reuseable 96-well chemotaxis chamber described in Section (B)(2) was replaced with endotoxin-free disposable chemotaxis chambers containing 5-micron PVP-free polycarbonate filters (ChemoTx101-5, Neuro Probe, Inc. Cabin John, Md.).

[2] = molecular target: T1, recombinant human IL-8, (ser-IL-8)72
[3] = molecular target: T1, recombinant human IL-8, (ser-IL-8)72; assay: competitive binding RIP, Scatchard
rhesus IL-8 = rhesus IL-8 (rhesus, UniProt P67813); assay: cell-based or functional assay
[4] = molecular target: human monomeric IL-8 (human)
[5] = molecular target: T1, recombinant human IL-8, (ser-IL-8)72; remark: listed apart in the source
[6] = molecular target: T1, recombinant human IL-8, (ser-IL-8)72; assay: competition phage ELISA (K64C IL-8 coated, free IL-8)
Excerpt: The first step of the assay requires that the concentrations of the phage carrying the wild type and mutated antibodies be normalized, allowing a comparison of the relative affinities of each antibody.

rabbit IL-8 = molecular target: T2, rabbit IL-8 (rabbit, UniProt P19874); assay: cell-based or functional assay
T2 sequence: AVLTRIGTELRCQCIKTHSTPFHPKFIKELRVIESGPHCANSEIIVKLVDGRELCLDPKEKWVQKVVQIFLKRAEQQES

[7] = molecular target: human monomeric IL-8 (human); remark: listed apart in the source
[8] = molecular target: T1, recombinant human IL-8, (ser-IL-8)72; remark: listed apart in the source
[9] = molecular target: T1, recombinant human IL-8, (ser-IL-8)72; assay: inhibition of 125I-IL-8 binding to human neutrophils; remark: listed apart in the source
[10] = molecular target: T1, recombinant human IL-8, (ser-IL-8)72; assay: 125I-IL-8 neutrophil competition; against F(ab)-1
[11] = molecular target: IL-8 binding to IL-8 receptors on human neutrophils (Homo sapiens, UniProt P10145); assay: inhibition of 125I-IL-8 binding to human neutrophils (competition binding assay); conditions: for IC50: humanized 6G425 variants, Table 4, read-out: IC50 Mean (concentration of variant necessary to inhibit binding of iodinated IL8 to human neutrophils)

rhu4D5 F(ab) (Fab)
IC50 [1]: > 200000 nM

B1: F(ab)-8: humanized variant, F(ab)-6 with ArgH38Lys (protein)
light: DIQMTQSPSSLSASVGDRVTITCRSSQSLVHGIGNTYLHWYQQKPGKAPKLLIYKVSNRFSGVPSRFSGSGSGTDFTLTISSLQPEDFATYYCSQSTHVPLTFGQGTKVEIKRTVAAPSVFIFPPSDEQLKSGTASVVCLLNNFYPREAKVQWKVDNALQSGNSQESVTEQDSKDSTYSLSSTLTLSKADYEKHKVYACEVTHQGLSSPVTKSFNRGEC
heavy: EVQLVESGGGLVQPGGSLRLSCAASGYSFSSHYMHWVKQAPGKGLEWVGYIDPSNGETTYNQKFKGRFTLSRDNSKNTAYLQMNSLRAEDTAVYYCARGDYRYNGDWFFDVWGQGTLVTVSSASTKGPSVFPLAPSSKSTSGGTAALGCLVKDYFPEPVTVSWNSGALTSGVHTFPAVLQSSGLYSLSSVVTVPSSSLGTQTYICNVNHKPSNTKVDKKVEPKSCDKTHT
IC50 (IL-8; read-out: IC50, human wild type IL-8 mediated neutrophil chemotaxis): 12 nM

B2: 6G4V11N35E Fab: affinity matured variant of humanized 6G4V11 Fab with Glu at position 35 of CDR-L1 (protein)
light: B1 light with N35E
heavy: B1 heavy with E6Q, K38R
IC50 (IL-8; 2 nM IL-8, disposable chemotaxis chambers, read-out: IC50, human IL-8 mediated neutrophil chemotaxis): ~1.2 nM | inhibition of chemotaxis at 3.7 nM-33 nM (IL-8; 2 nM stimulus of rabbit or human IL-8, compared with buffer control): could completely inhibit this response

B3: monoclonal antibody 5.12.14 (antibody, V domains shown)
VH: EVQLVESGGGLVPPGGSLKLSCAASGFIFSSYGMSWVRQTPGKSLELVATINNNGDSTYYPDSVKGRFTISRDNAKNTLYLQMSSLKSEDTAMFYCARALISSATWFGYWGQGTLVTVSA
VL: DIVMTQSQKFMSTSVGDRVSVTCKASQNVGTNVAWYQQKPGQSPKALIYSSSYRYSGVPDRFTGSGSGTDFTLTISHVQSEDLADYFCQQYNIYPLTFGPGTKLELKR
neutrophil chemotaxis induced by IL-8 (Boyden chamber) [2]: 70% | Kd [3]: 0.3 nM

B4: 6G4.2.5 Fab: recombinant human-murine chimeric Fab of 6G4.2.5 (protein)
light: DIVMTQTPLSLPVSLGDQASISCRSSQSLVHGIGNTYLHWYLQKPGQSPKLLIYKVSNRFSGVPDRFSGSGSGTDFTLRISRVEAEDLGLYFCSQSTHVPLTFGAGTKLELKRAVAAPTVFIFPPSSEQLKSGTASVVCLLNNFYPREAKVQWKVDNALQSGNSQESVTEQDSKDSTYSLSSTLTLSKADYEKHKVYACEVTHQGLSSPVTKSFNRGEC
heavy: EIQLQQSGPELMKPGASVKISCKASGYSFSSHYMHWVKQSHGKSLEWIGYIDPSNGETTYNQKFKGKATLTVDTSSSTANVHLSSLTSDDSAVYFCARGDYRYNGDWFFDVWGAGTTVTVSSASTKGPSVFPLAPSSKSTSGGTAALGCLVKDYFPEPVTVSWNSGALTSGVHTFPAVLQSSGLYSLSSVVTVPSSSLGTQTYICNVNHKPSNTKVDKKVEPKSCDKTHT
inhibition of human IL-8 mediated neutrophil chemotaxis / migration (IL-8): demonstrates the inhibition of human IL-8 mediated neutrophil chemotaxis

B5: humanized 6G425 F(ab)-9 (Fab, V domains shown)
VH: EVQLVQSGGGLVQPGGSLRLSCAASGYSFSSHYMHWVRQAPGKGLEWVGYIDPSNGETTYNQKFKGRFTLSRDNSKNTAYLQMNSLRAEDTAVYYCARGDYRYNGDWFFDVWGQGTLVTVSS
VL: DIQMTQSPSSLSASVGDRVTITCRSSQSLVHGIGNTYLHWYQQKPGKAPKLLIYKVSNRFSGVPSRFSGSGSGTDFTLTISSLQPEDFATYYCSQSTHVPLTFGQGTKVEIKR
IC50, IL-8 mediated neutrophil chemotaxis (rhesus IL-8): ~22 nM | IC50, IL-8 mediated neutrophil chemotaxis [4]: 15 nM | IC50, IL-8 mediated neutrophil chemotaxis [5]: 12 nM

B6: humanized 6G425 F(ab)-8 (Fab, V domains shown)
VH: B5 VH with Q6E, R38K
VL: B5 VL
IC50, IL-8 mediated neutrophil chemotaxis (rhesus IL-8): 10 nM

B7: h6G4V11 alanine mutant Y37A (CDR-L1) (Fab, V domains shown)
VH: B5 VH
VL: B5 VL with Y37A
binding result [6]: no binding

B8: h6G4V11 alanine mutant H98A (CDR-L3) (Fab, V domains shown)
VH: B5 VH
VL: B5 VL with H98A
IC50 [6]: 8 nM

B9: 6G4V11N35A F(ab')2 leucine zipper (antibody, V domains shown)
VH: B5 VH
VL: B5 VL with N35A
IC50, IL-8 mediated neutrophil chemotaxis (rabbit IL-8): 4 nM | IC50, IL-8 mediated neutrophil chemotaxis [7]: 1 nM | IC50, human IL-8 mediated neutrophil chemotaxis [8]: 1.5 nM

B10: 5.12.14 Fab: recombinant human-murine chimeric Fab of 5.12.14 (protein)
light: DIVMTQSQKFMSTSVGDRVSVTCKASQNVGTNVAWYQQKPGQSPKALIYSSSYRYSGVPDRFTGSGSGTDFTLTISHVQSEDLADYFCQQYNIYPLTFGPGTKLELRRAVAAPSVFIFPPSDEQLKSGTASVVCLLNNFYPREAKVQWKVDNALQSGNSQESVTEQDSKDSTYSLSSTLTLSKADYEKHKVYACEVTHQGLSSPVTKSFNRGEC
heavy: EVQLVESGGGLVPPGGSLKLSCAASGFIFSSYGMSWVRQTPGKSLELVATINNNGDSTYYPDSVKGRFTISRDNAKNTLYLQMSSLKSEDTAMFYCARALISSATWFGYWGQGTLVTVSAASTKGPSVFPLAPSSKSTSGGTAALGCLVKDYFPEPVTVSWNSGALTSGVHTFPAVLQSSGLYSLSSVVTVPSSSLGTQTYICNVNHKPSNTKVDKKVEPKSCDKTHT
inhibition of human IL-8 mediated neutrophil chemotaxis / migration (IL-8): demonstrates the inhibition of human IL-8 mediated neutrophil chemotaxis

B11: humanized 6G425 F(ab)-2 (Fab, V domains shown)
VH: EVQLVESGGGLVQPGGSLRLSCAASGYSFSSHYMHWVRQAPGKGLEWVGYIDPSNGETTYNQKFKGRATISRDNSKNTLYLQMNSLRAEDTAVYYCAARGDYRYNGDWFFDVWGQGT
VL: DIQMTQSPSSLSASVGDRVTITCRSSQSLVHGIGNTYLHWYQQKPGKAPKLLIYYKVSNRFSGVPSRFSGSGSGTDFTLTISSLQPEDFATYYCSQSTHVPLTFGQGTKVEIKR
IC50 [9]: 106 nM | fold decrease in IL-8 binding [10]: < 2 fold

B12: F(ab)-7: humanized variant, F(ab)-6 with LeuH80Val (antibody, V domains shown)
VL: B11 VL
VH: B11 VH with A68F, I70L, L79A, L81V
IC50 [11]: 38.4 nM

B13: humanized 6G425 F(ab)-3 (Fab, V domains shown)
VH: B11 VH with A68F, R72V
VL: B11 VL
IC50 [9]: 79.8 nM | fold decrease in IL-8 binding [10]: < 2 fold

B14: F(ab)-6: humanized variant, F(ab)-1 with IleH69Leu and LeuH78Ala (antibody, V domains shown)
VL: B11 VL
VH: B11 VH with A68F, I70L, L79A
increase in affinity for IL-8 ([11]; compared to F(ab)-1): approximately 2 fold | IC50 [11]: 34.6 nM
